Results from PMC12135937, “Members of the DIP and Dpr adhesion protein families use cis inhibition to shape neural development in Drosophila” (PLOS Biology, 2025).

T1: DIP-β isoform G (Drosophila melanogaster)
T1 construct: has an 11 amino acid deletion in the first Ig domain relative to DIP-β-C; Monomeric protein was used for SPR; also called DIP-β-G; not shown: His6, C-terminal, kept
T1 chain: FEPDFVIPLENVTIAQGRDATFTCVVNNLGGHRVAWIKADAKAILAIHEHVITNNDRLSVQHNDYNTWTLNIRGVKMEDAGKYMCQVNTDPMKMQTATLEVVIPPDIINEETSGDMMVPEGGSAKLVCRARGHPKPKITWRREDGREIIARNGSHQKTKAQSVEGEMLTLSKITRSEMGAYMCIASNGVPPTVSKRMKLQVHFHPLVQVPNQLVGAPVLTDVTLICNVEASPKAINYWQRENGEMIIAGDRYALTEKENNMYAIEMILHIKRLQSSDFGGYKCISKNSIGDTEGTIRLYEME

T2: DIP-β-G recombinant protein for SPR (printed sequence) (Drosophila melanogaster)
T2 construct: DIP-β isoform G, Drosophila melanogaster; Monomeric protein was used for SPR; immobilised by amine coupling; also called Isoform G of DIP-β; not shown: His6, C-terminal, kept
T2 chain: T1 chain

B1: Dpr15 (natural protein)
chain: TLKPPPTIDDYQTIISQAGTHAYLPCNVKQLVKKPISWLRMRDGHILTVDQTTFIADQRFQSVFSPNPERWSLQIKYVQLKDEGTYECQVSTEPKASAIVHLRIVEPKTELIGESTRHVKAGSQVKLRCIISQALEPPLFINWFYNQKQIYLHNRRGWRTEIERIDLPAEVPTTSTTTTTTTTTASTTTTTTSTTPATPSTTATGSTEGATSSETLNGLVTITRSYILDAISQNDVSELGAAAGVAVATETSTAQLLTEVEATSSTSGTSTGAGLLASTSAAYAAGAAAGITTAATGDSAATAATTSAWLTTMDAEAATTAATTTTTMLPSSSFIKQITTASLIIPAVVKLDSGNYTCSPSNSAPRTIVLHVLNGE
B2: Dpr21 (natural protein)
chain: DRGPYFDTSATKNVTSLVGITGHLNCRIKNLGNKTVSWIRHRDLHLLTVSESTYTSDQRFTSIYNKQTGDWSLQIKFPQLRDSGIYECQVSTTPPVGYTMVFSVVEPITSILGGPEIYIDLGSTVNLTCVIKHLPDPPISVQWNHNNQEINYDSPRGGVSVITEKGDITTSYLLIQRASIADSGQYTCLPSNANSKSVNVHILKGD
B3: Dpr6 (natural protein)
chain: WMEPYFDPSTPRNVTALMGKSAYLSCRVRNLANKTVSWIRHRDIHILTVGSYTYTSDQRFQATHHQDTEDWTLQIKWAQKRDAGMYECQISTQPVRSYFVRLNVVVPTATILGGPDLHVDKGSTINLTCTVKFSPEPPAYIFWYHHEEVINYDSSRGGVSVITEKGDVTTSFLLIQNADLADSGKYSCAPSNADVASVRVHVLNGE
B4: Dpr10-A recombinant protein for SPR (printed sequence) (domain or fragment, Drosophila melanogaster)
chain: WNEPYFDLTMPRNITSLVGKSAYLGCRVKHLGNKTVAWIRHRDLHILTVGTYTYTTDQRFQTSYHRDIDEWTLQIKWAQQRDAGVYECQISTQPVRSYSVNLNIVDLIDAETSDIMQQYYNDDAFYIAENRVYQSSNDEFAGMFGPIQTVAVPTATILGGPDLYVDKGSTINLTCIIKFSPEPPTHIFWYHQDKVLSEETSGGRLKFKTIKSEETKSILLIYDADLLHSGKYSCYPSNTEIASIRVHVLQGE
notes: Dpr10 isoform A, Drosophila melanogaster; Monomeric protein was used for SPR; analyte; not shown: His6, C-terminal, kept

Experiments:
Conditions in all cases: both partners purified
[1] = biological target: T1, DIP-β isoform G; test: SPR; Biacore T100, CM4 chip; DIPs immobilised by amine coupling (700-900 RU), monomeric Dpr analytes in 3-fold dilution series (0.012 to 9, 27 or 81 µM); 25 °C; 10 mM Tris-HCl pH 7.2, 150 mM NaCl, 1 mM EDTA, 1 mg/mL BSA, 0.01% Tween-20; equilibrium responses fit to a 1:1 model
[2] = biological target: T3, DIP-β isoform C (Drosophila melanogaster); test: as above
T3 construct: Monomeric protein was used for SPR; also called DIP-β-C
T3 sequence (main, as listed by the source): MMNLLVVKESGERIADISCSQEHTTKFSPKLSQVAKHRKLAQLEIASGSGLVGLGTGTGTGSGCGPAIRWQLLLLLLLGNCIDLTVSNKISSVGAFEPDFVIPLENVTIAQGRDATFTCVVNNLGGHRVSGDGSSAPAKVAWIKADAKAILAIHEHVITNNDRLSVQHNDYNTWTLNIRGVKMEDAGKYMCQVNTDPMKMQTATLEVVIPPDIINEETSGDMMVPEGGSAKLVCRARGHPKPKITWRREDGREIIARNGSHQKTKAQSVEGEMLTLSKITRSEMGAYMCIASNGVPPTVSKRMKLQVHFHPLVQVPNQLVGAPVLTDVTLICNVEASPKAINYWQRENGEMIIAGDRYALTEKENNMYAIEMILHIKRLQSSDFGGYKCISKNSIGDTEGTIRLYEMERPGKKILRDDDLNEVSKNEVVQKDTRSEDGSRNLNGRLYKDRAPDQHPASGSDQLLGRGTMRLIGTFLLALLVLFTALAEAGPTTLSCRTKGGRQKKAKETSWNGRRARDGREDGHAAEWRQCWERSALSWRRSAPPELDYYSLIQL

[3] = biological target: T2, DIP-β-G recombinant protein for SPR …; test: SPR; Biacore T100, CM4 chip; DIPs immobilised by amine coupling (700-900 RU), monomeric Dpr analytes in 3-fold dilution series; 25 °C; 10 mM Tris-HCl pH 7.2, 150 mM NaCl, 1 mM EDTA, 1 mg/mL BSA, 0.01% Tween-20; equilibrium responses fit to a 1:1 model

Binder	Kd [1] [µM]	Kd [2] [µM]	Kd [3] [µM]
B1	159	25.3	–
B2	5.05	1.55	–
B3	15.2	22	–
B4	–	–	5.76
